Test results reported in patent US20180319855A1, “GENETICALLY MUTATED AEQUORIN-BASED BIOSENSORS WITH EXTRA SENSITIVITY TO CALCIUM AND IMPROVED BIOLUMINESCENCE INTENSITY” (CENTRE NATIONAL DE LA RECHERCHE SCIENTIFIQUE (CNRS), priority 2015, published 2018).
Where a chain is given by its changes, count along the chain named. In names and notes the source's numbering stands.

How the values were obtained:
[1] = system: pyramidal neurons of mouse neocortical slices; assay: Bioluminescence Ca2+ imaging of transduced neocortical slices in Mg2+-free ACSF; type: cell-based; settings: native coelenterazine, 25 Hz
Method: Recombinant Sindbis viruses were prepared and used to express Redquorin mutants and GA in neurons of brain slices as described (Drobac et al., 2010), (Tricoire and Lambolez, 2014). The coding sequences of Redquorin mutants and GA were first subcloned in the plasmid pSinRep5 (Invitrogen) upstream to the polyA signal. The resulting pSinRep5 plasmids encoding the fusion protein sensors as well as the helper plasmid pDH26S (Invitrogen) were then submitted to in vitro transcription to prepare capped RNA using the Megascript SP6 kit (Ambion). […]
Bioluminescence imaging was performed at room temperature using an intensified CDD video camera (ICCD225; Photek) controlled by the IFS32 software (Photek), and mounted on an upright microscope (BX51WI, Olympus) equipped with water immersion objectives ×10 (NA=0.3) and ×20 (NA=0.95). Prior to bioluminescence imaging, fluorescence images of GA- or Redquorin-transduced slices were acquired in the “bright field” mode of the camera using GFP (Semrock) or Cy3ET (Chroma) filter sets. […]
The transduced acute brain slices expressing the sensors were then perfused with artificial cerebrospinal fluid (ACSF) without Mg^2+. […] Before the threshold for depolarization, the recorded imaging intensity was very weak consistent with the concept of low background luminescence of photoproteins. […]

[2] = Thermostability: relative bioluminescence activity after 30 min incubation; type: physicochemical; settings: CLZ-f
Procedure, shortened: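 Purified photoprotein was reconstituted with CLZ-f and read for total counts with saturating calcium (50 mM Tris-HCl, 100 mM CaCl2, pH 7.5). It was then held at 30 to 40 °C for 30 min, re-equilibrated for 15 min and read again. Activity is 2nd/1st counts ×100.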

B1: Redq/Q159T: aporedquorin (tdTomato-aequorin fusion) mutant Q159T (SEQ ID NO:22) (protein)
chain: MVSKGEEVIKEFMRFKVRMEGSMNGHEFEIEGEGEGRPYEGTQTAKLKVTKGGPLPFAWDILSPQFMYGSKAYVKHPADIPDYKKLSFPEGFKWERVMNFEDGGLVTVTQDSSLQDGTLIYKVKMRGTNFPPDGPVMQKKTMGWEASTERLYPRDGVLKGEIHQALKLKDGGHYLVEFKTIYMAKKPVQLPGYYYVDTKLDITSHNEDYTIVEQYERSEGRHHLFLGHGTGSTGSGSSGTASSEDNNMAVIKEFMRFKVRMEGSMNGHEFEIEGEGEGRPYEGTQTAKLKVTKGGPLPFAWDILSPQFMYGSKAYVKHPADIPDYKKLSFPEGFKWERVMNFEDGGLVTVTQDSSLQDGTLIYKVKMRGTNFPPDGPVMQKKTMGWEASTERLYPRDGVLKGEIHQALKLKDGGHYLVEFKTIYMAKKPVQLPGYYYVDTKLDITSHNEDYTIVEQYERSEGRHHLFLSGFDNPRWIGRHKHMFNFLDVNHNGKISLDEMVYKASDIVINNLGATPEQAKRHKDAVEAFFGGAGMKYGVETDWPAYIEGWKKLATDELEKYAKNEPTLIRIWGDALFDIVDKDQNGAITLDEWKAYTKAAGIIQSSEDCEETFRVCDIDESGTLDVDEMTRQHLGFWYTMDPACEKLYGGAVP
modifications: mutant aequorin
[1]
  bioluminescence imaging response to Ca2+ transients: performed as well as its analogue GA
[2]; 30° C. for 30 min
  Thermostability, luminescence activity relative to wt-aequorin: 0.90
[2]; 40° C. for 30 min
  Thermostability, luminescence activity relative to wt-aequorin: 0.92

B2: Redq/Q159D: aporedquorin (tdTomato-aequorin fusion) mutant Q159D (SEQ ID NO:21) (protein)
chain: B1 chain with T623D
modifications: mutant aequorin
[1]
  bioluminescence imaging response to Ca2+ transients: significant signal-over-background ratio
[2]; 30° C. for 30 min
  Thermostability, luminescence activity relative to wt-aequorin: 0.91
[2]; 40° C. for 30 min
  Thermostability, luminescence activity relative to wt-aequorin: 0.95
